# Data as given in PMC6838198, “Insights into the assembly and architecture of a Staufen-mediated mRNA decay (SMD)-competent mRNP” (Nature Communications, 2019).
# T1: GST-UPF1CH (human, UniProt Q92900-2 115-272)
# T1 construct: human UPF1, N-terminal cysteine-histidine-rich (CH) domain; also called UPF1CH domain; source: E. coli BL21 (DE3) STAR pRARE, purified (Ni-NTA, heparin, SEC)
# T1 sequence (looked up): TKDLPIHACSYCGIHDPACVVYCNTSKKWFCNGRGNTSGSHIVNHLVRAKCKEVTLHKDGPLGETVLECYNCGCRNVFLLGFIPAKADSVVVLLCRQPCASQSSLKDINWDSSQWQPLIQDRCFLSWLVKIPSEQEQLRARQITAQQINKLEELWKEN
# Assays:
# [1] = target: Stau1 dsRBD2-3-4-dd (human); assay: SEC-MALS; about 350 µg of each Stau1 construct on Superdex 200 10/300; 20 mM HEPES pH 7.5, 150 mM NaCl, 0.02% NaN3; dimer to monomers
# [2] = target: the molecule itself; assay: SEC; analytical SEC of full-length Stau1 alone; monomer and dimer peaks
# [3] = target: GST-UPF1 (CH domain and helicase core) (human) (UniProt Q92900); assay: pull-down; as the GST pull-down, with UPF2 added as a third purified protein
# [4] = target: T1, GST-UPF1CH; assay: as above; conditions: both partners purified
# [5] = target: T1, GST-UPF1CH; assay: pull-down; GST-tagged bait and prey mixed in equal amounts, 4 °C 16 h, Glutathione Sepharose; 20 mM HEPES pH 7.5, 150 mM NaCl, 10% glycerol, 0.1% NP-40; eluted with 20 mM glutathione, SDS-PAGE and Coomassie; bands quantified with ImageJ; conditions: both partners purified
Molecule,stoichiometry N [1],stoichiometry N [2],fold increase of co-precipitated Stau1 on addition of UPF2 [3] [fold],fold increase of co-precipitated Stau1 on addition of UPF2 [4] [fold],fold lower amount bound than UPF2s [5] [fold]
Stau1 dsRBD2-3-4-dd (domain or fragment),2,,,,
"Stau1, full length (Stau1_63, the longer isoform, 577 residues) (natural protein, human, UniProt O95793 1-577, looked up, human Stau1, longer isoform Stau1_63, 577 residues; In rapid equilibrium between monomer and dimer in solution; source: E. coli BL21 (DE3) STAR pRARE, purified (Ni-NTA, heparin, SEC)) MSQVQVQVQNPSAALSGSQILNKNQSLLSQPLMSIPSTTSSLPSENAGRPIQNSALPSASITSTSAAAESITPTVELNALCMKLGKKPMYKPVDPYSRMQSTYNYNMRGGAYPPRYFYPFPVPPLLYQVELSVGGQQFNGKGKTRQAAKHDAAAKALRILQNEPLPERLEVNGRESEEENLNKSEISQVFEIALKRNLPVNFEVARESGPPHMKNFVTKVSVGEFVGEGEGKSKKISKKNAAIAVLEELKKLPPLPAVERVKPRIKKKTKPIVKPQTSPEYGQGINPISRLAQIQQAKKEKEPEYTLLTERGLPRRREFVMQVKVGNHTAEGTGTNKKVAKRNAAENMLEILGFKVPQAQPTKPALKSEEKTPIKKPGDGRKVTFFEPGSGDENGTSNKEDEFRMPYLSHQQLPAGILPMVPEVAQAVGVSQGHHTKDFTRAAPNPAKATVTAMIARELLYGGTSPTAETILKNNISSGHVPHGPLTRPSEQLDYLSRVQGFQVEYKDFPKNNKNEFVSLINCSSQPPLISHGIGKDVESCHDMAALNILKLLSELDQQSTEMPRTGNGPMSVCGRC",,2,3.3,2.3,3.3
